Assay results published in patent US20260176358A1.

Key:
PACAP38 [1] = molecular target: PACAP38 (UniProt P18509); test: competition ELISA, biotinylated PACAP38 to coated VPAC2-Fc
PACAP38 [2] = molecular target: PACAP38 (UniProt P18509); test: competition ELISA, biotinylated PACAP38 to coated PAC1-Fc
PACAP38 [3] = molecular target: PACAP38 (UniProt P18509); test: ELISA, biotinylated peptide on streptavidin plate
PACAP27 = PACAP27 (UniProt P18509); test: ELISA, biotinylated peptide on streptavidin plate
VIP = VIP (UniProt P01282); test: ELISA, biotinylated peptide on streptavidin plate
PACAP38 [4] = molecular target: PACAP38 (UniProt P18509); test: competition ELISA, biotinylated PACAP38 to coated VPAC1-Fc
CGRP = test: cell-based or functional assay

Chain of PACAP38 (P18509 132-169 limits assumed): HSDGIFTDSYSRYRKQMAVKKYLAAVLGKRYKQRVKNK
Chain of VIP (P01282 125-152 limits assumed): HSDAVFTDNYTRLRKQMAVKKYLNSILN
Chain of PACAP27 (P18509 132-158 limits assumed): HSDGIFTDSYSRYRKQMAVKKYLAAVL

| IC50 (PACAP38 [1]) [nM] | IC50 (PACAP38 [2]) [nM] | EC50 (PACAP38 [3]) [nM] | EC50 (PACAP27) [nM] | EC50 (VIP) [nM] | IC50 (PACAP38 [4]) [nM] | IC50, inhibition of cAMP production in SK-N-MC cells (CGRP) [nM] | Substance |
| --- | --- | --- | --- | --- | --- | --- | --- |
| 1.58 | 4.89 | 0.07 | 0.15 | 1.02 | 0.65 | – | ALD-1910 (antibody) |
| 1.42 | 6.46 | 0.06 | 0.11 | 9.58 | 1.34 | – | LY-3451838 (antibody) |
| – | – | – | – | – | – | 40 | Fremanezumab (antibody) |
